Measurements: article PMC4491177, “Co-translational capturing of nascent ribosomal proteins by their dedicated chaperones” (Nature Communications, 2015)
Ends that are not written are not given here.

How the values were obtained:
[1] = system: Rrb1; experiment: Y2H interaction with Rrb1; assay type: binding, S. cerevisiae; details: reporter strain PJ69-4A, HIS3 and ADE2 reporters, 3 days at 30 °C
Experimental: For Y2H interaction assays, plasmids expressing bait proteins, fused to the Gal4 DNA-binding domain (G4BD), and prey proteins, fused to the Gal4 activation domain (G4AD), were co-transformed into reporter strain PJ69-4A. Y2H interactions were documented by spotting representative transformants in 10-fold serial dilution steps onto SC-Trp-Leu, SC-Trp-Leu-His (HIS3 reporter) and SC-Trp-Leu-Ade (ADE2 reporter) plates, which were incubated for 3 days at 30 °C. Growth on SC-Trp-Leu-His plates is indicative of a weak/moderate interaction, whereas only relatively strong interactions permit growth on SC-Trp-Leu-Ade plates.

[2] = system: RPL3 mRNA; experiment: co-translational capturing by qRT-PCR, RPL3 mRNA; assay type: binding, S. cerevisiae; details: NTAP-Rrb1 purification, cycloheximide-treated cells; one representative experiment, qPCR triplicates
Experimental: (§1) Cells expressing Sqt1-TAP, NTAP-Rrb1, Syo1-FTpA and Yar1-TAP were grown at 30 °C in 400 ml YPD medium to an optical density (OD600) of 0.8, then cycloheximide was added to a final concentration of 0.2 mg ml^−1 and the flasks were kept, with intermittent vigorous shaking, on ice for 5 min. Cells were harvested by centrifugation for 5 min at 4 °C at 4,000 r.p.m., washed once with 20 ml of ice-cold lysis buffer (100 mM NaCl, 50 mM Tris-HCl (pH 7.5), 1.5 mM MgCl2, 0.1% NP-40 and 5% glycerol) containing 1 mM PMSF and 0.2 mg ml^−1 cycloheximide (lysis buffer-PC) and resuspended in 2 ml of lysis buffer-PC. Equal volumes of the resuspended cells were transferred into two 2.2 ml Eppendorf tubes, briefly centrifuged and resuspended in 600 μl of ice-cold lysis buffer-PC. To prevent RNA degradation, 4 μl of RiboLock (40 U μl^−1; Fermentas) was added. Then glass beads, corresponding to 1/3 of the lysis buffer volume, were added and the tubes were vigorously vortexed for 10 × 30 s with 30-s intervals on ice. Cell extracts were transferred to a new tube and, to maximize the yield, 400 μl of ice-cold lysis buffer-PC was used to rinse the glass beads. […]
(§2) For RNA isolation from the TEV eluate aliquot (∼450 μl), the TEV eluate was adjusted to 10 mM EDTA (pH 8.0) and 0.5% SDS. […] RNA concentrations (A260) were determined using a NanoDrop 1000 spectrophotometer (Thermo Scientific). […]

[3] = soluble expression in E. coli; assay type: physicochemical; details: data not shown for Rpl10
[4] = system: sqt1 mutant cells; experiment: in vivo ribosomal protein solubility assay; assay type: cell-based, S. cerevisiae; details: expressed for 20 min from copper-inducible promoter; in sqt1.E315A and sqt1.E110A/D420A mutant cells; 200,000g 1 h
Experimental: The sqt1 mutant cells, either containing empty vector or a centromeric plasmid expressing Sqt1 from the ADH1 promoter, were grown in a volume of 100 ml to an OD600 of ∼0.7 and expression of C-terminally 2xHA-tagged Rpl10 was induced for 20 min from the CUP1 promoter with 500 μM copper sulfate. After harvesting, cells were lysed with glass beads in a buffer containing 50 mM Tris-HCl (pH 7.5), 100 mM NaCl, 1.5 mM MgCl2, 5% glycerol and 0.1% NP-40, and cell extracts were centrifuged for 3 min at 3,000 r.p.m. Then, total cell extracts, 10 A260 units in a final volume of 500 μl, were subjected to centrifugation at 200,000g for 1 h. Pellets were resuspended in 100 μl lysis buffer and equal amounts of the total extracts (T), soluble extracts (S) and pellet fractions (P) were analysed by SDS–polyacrylamide gel electrophoresis and western blotting using an anti-HA antibody.
Supplementary Figure 9 Sqt1 is required for the soluble expression of Rpl10 in yeast.
Expression of C-terminally 2xHA-tagged Rpl10 (Rpl10-2xHA) was induced for 20 min from the CUP1 promoter with 500 µM copper sulfate in sqt1.E315A or sqt1.E110A/D420A mutant cells containing empty vector (vector) or a plasmid expressing Sqt1 from the constitutive ADH1 promoter (SQT1). […]

[5] = system: RPL5 mRNA; experiment: co-translational capturing by qRT-PCR, RPL5 mRNA; assay type: binding, S. cerevisiae; details: Syo1-FTpA purification, cycloheximide-treated cells; one representative experiment, qPCR triplicates
Experimental: as §1, §2

[6] = system: RPS3 mRNA; experiment: co-translational capturing by qRT-PCR, RPS3 mRNA; assay type: binding, S. cerevisiae; details: Yar1-TAP purification, cycloheximide-treated cells; one representative experiment, qPCR triplicates
Experimental: as §1, §2

Molecule: amino acids 1–15 of Rpl3: amino acids 1–15 of Rpl3, Y2H bait fused to G4BD (MSHRKYEAPRHGHLG; also: fused to Gal4 DNA-binding domain; UniProt P14126 1-15, looked up, fragment)
- Y2H interaction with Rrb1 [1]: sufficient to yield a robust Y2H interaction with full-length Rrb1

B1: Rrb1: dedicated chaperone of Rpl3; purified as NTAP-Rrb1 in b27 (protein, UniProt Q04225 1-511, looked up)
Ribosome assembly protein RRB1: MSKRSIEVNEEQDRVVSAKTESHSVPAIPASEEQDAPKNDLEEQLSDEFDSDGEIIEIDGDDEINDEDDLRKKQEEAETLVQKDQSEGNKEKIQELYLPHMSRPLGPDEVLEADPTVYEMLHNVNMPWPCLTLDVIPDTLGSERRNYPQSILLTTATQSSRKKENELMVLALSNLAKTLLKDDNEGEDDEEDDEDDVDPVIENENIPLRDTTNRLKVSPFAISNQEVLTATMSENGDVYIYNLAPQSKAFSTPGYQIPKSAKRPIHTVKNHGNVEGYGLDWSPLIKTGALLSGDCSGQIYFTQRHTSRWVTDKQPFTVSNNKSIEDIQWSRTESTVFATAGCDGYIRIWDTRSKKHKPAISVKASNTDVNVISWSDKIGYLLASGDDNGTWGVWDLRQFTPSNADAVQPVAQYDFHKGAITSIAFNPLDESIVAVGSEDNTVTLWDLSVEADDEEIKQQAAETKELQEIPPQLLFVHWQKEVKDVKWHKQIPGCLVSTGTDGLNVWKTISV
- enrichment of the specific ribosomal protein mRNA (RPL3) [2]: roughly 100 -fold
- soluble expression in E. coli [3]: inefficient expression of soluble Rrb1

B2: Rpl10-2xHA: C-terminally 2xHA-tagged Rpl10 (protein)
chain: MARRPARCYRYQKNKPYPKSRYNRAVPDSKIRIYDLGKKKATVDEFPLCVHLVSNELEQLSSEALEAARICANKYMTTVSGRDAFHLRVRVHPFHVLRINKMLSCAGADRLQQGMRGAWGKPHGLAARVDIGQIIFSVRTKDSNKDVVVEGLRRARYKFPGQQKIILSKKWGFTNLDRPEYLKKREAGEVKDDGAFVKFLSKKGSLENNIREFPEYFAAQA
modifications: left off: 2xHA, C-terminal, kept
notes: C-terminally 2xHA-tagged Rpl10
- solubility of newly synthesized Rpl10-2xHA [4]: strongly reduced

B3: Syo1: transport adaptor, chaperone of Rpl5 (and Rpl11) (protein)
chain: MGRSKKRSRASSSRLNPLRKAGSNDNNKDTNVVNKKLQPLLQNLSSVVPNDRSIALSSISVLCEDAHMRQLLLKEKLVPIILNKLLNDSNSDIVVESFGLLRNLSLEEGYDVSIYLWRSDIWTSITSNFGRIVESLSALQAAEQQPQLKPAGKSKIESKRLLFDFADNLLSLVVALSNGSDDILNEILTESKINEIFQVISQLLKYGVEKLPINLFNTTLDLIYDLSSESFEFIDHVSNNELLSQFLNGLSPALHPQANELTKVLIEGIHCQFLDMKITYDQCNKMIHSVCHSINNIDPVQLVNDINNPVEIGPATSKDESSKVITKIKDYNAKRNESMIKLQSIEIAIDLITAIIEIVASKYESPESQEVAIPEELINTLTNFLPHVFMILKDTFTSRILIGWNNLIWLFVSLSLTELSGELLTTLWSYVTQLDSQDDLSIKIGRMGCIWALLKLIFPDGAFESENRALINVQMLNNSGFARGIIEEFQNNNDLELQQKCINVLSTYAMIQGQIDANKEIGQFFIQTLTQLNVRPEILIEMTNSLFQIYGDASYDYNEPIFVRGGFLSILKDQVVPNLRQQFKMVDKNKNPELKERCHDCFTTLDSFIHYKMNENSTNQ
modifications: left off: FTpA, end not stated, kept
- enrichment of the specific ribosomal protein mRNA (RPL5) [5]: roughly 100 -fold

B4: Yar1: ankyrin-repeat protein, chaperone of Rps3 (protein)
chain: MGLHSEPLDQEDQDTIILDARAGDLDSLKDIFTTLVSPELLSTCKESESDSTALHMAAANGHIETVRYILETVSRANSAEDLKAFVNEVNKTGNTALHWASLNGKLDVVKLLCDEYEADPFIRNKFGHDAIFEAENSGKEEVETYFLKKYDVEPEDDEEDTQTEGKNSVQITKGTEIEQVTKEATEALREETEKLNINKD
modifications: left off: TAP, end not stated, kept
notes: ankyrin-repeat protein, chaperone of Rps3
- enrichment of the specific ribosomal protein mRNA (RPS3) [6]: roughly 100 -fold
